# Source: patent US20260166131A1, “METHOD FOR PROMOTING PATHOLOGICAL TDP-43 PROTEIN DEGRADATION, AND DRUG” (TALENGEN INTERNATIONAL LIMITED, priority 2022, published 2026)
# B1: plasminogen: human plasminogen purified from human donor plasma, in which human Lys-plasminogen and Glu-plasminogen are >98% (protein)
# chain: KVYLSECKTGNGKNYRGTMSKTKNGITCQKWSSTSPHRPRFSPATHPSEGLEENYCRNPDNDPQGPWCYTTDPEKRYDYCDILECEEECMHCSGENYDGKISKTMSGLECQAWDSQSPHAHGYIPSKFPNKNLKKNYCRNPDRELRPWCFTTDPNKRWELCDIPRCTTPPPSSGPTYQCLKGTGENYRGNVAVTVSGHTCQHWSAQTPHTHNRTPENFPCKNLDENYCRNPDGKRAPWCHTTNSQVRWEYCKIPSCDSSPVSTEQLAPTAPPELTPVVQDCYHGDGQSYRGTSSTTTTGKKCQSWSSMTPHRHQKTPENYPNAGLTMNYCRNPDADKGPWCFTTDPSVRWEYCNLKKCSGTEASVVAPPPVVLLPDVETPSEEDCMFGNGKGYRGKRATTVTGTPCQDWAAQEPHRHSIFTPETNPRAGLEKNYCRNPDGDVGGPWCYTTNPRKLYDYCDVPQCAAPSFDCGKPQVEPKKCPGRVVGGCVAHPHSWPWQVSLRTRFGMHFCGGTLISPEWVLTAAHCLEKSPRPSSYKVILGAHQEVNLEPHVQEIEVSRLFLEPTRKDIALLKLSSPAVITDKVIPACLPSPNYVVADRTECFITGWGETQGTFGAGLLKEAQLPVIENKVCNRYEFLNGRVQSTELCAGHLAGGTDSCQGDSGGPLVCFEKDKYILQGVTSWGLGCARPNKPGVYVRVSRFVTWIEGVMRNN
# Columns and labels:
# [1] = target: T1, TDP-43 (Homo sapiens, UniProt Q13148); experiment: Cleavage of TDP-43 protein in normal mouse brain homogenate (Western blot); type: biochemical; details: normal mouse brain homogenate + recombinant TDP-43, 37° C. 3 h, vs vehicle control group
# T1 construct: purchased Nanjing GenScript Biotechnology Co., Ltd. C134WHE160-2/P5HF001
# T1 sequence (Q13148 whole entry): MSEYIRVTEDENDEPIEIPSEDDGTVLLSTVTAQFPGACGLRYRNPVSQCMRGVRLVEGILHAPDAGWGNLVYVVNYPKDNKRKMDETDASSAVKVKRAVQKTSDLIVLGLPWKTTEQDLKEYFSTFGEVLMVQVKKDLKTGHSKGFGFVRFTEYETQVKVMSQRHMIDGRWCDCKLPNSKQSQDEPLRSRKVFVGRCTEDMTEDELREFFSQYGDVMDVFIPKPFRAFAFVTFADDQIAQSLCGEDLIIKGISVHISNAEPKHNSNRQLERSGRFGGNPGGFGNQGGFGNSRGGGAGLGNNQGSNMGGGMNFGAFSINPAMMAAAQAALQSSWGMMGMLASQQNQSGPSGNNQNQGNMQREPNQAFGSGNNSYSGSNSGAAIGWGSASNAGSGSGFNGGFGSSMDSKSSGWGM
# Description: Four C57BL/6J male mice aged 11-12 weeks and weighing 18-25 g were sacrificed, and the whole brain was taken out to weigh. 1×PBS was added at 150 mg tissue/mL PBS (Thermo Fisher, pH 7.4; 10010-031) to homogenize at 4° C. (1 min, 3-4 times). After homogenization, centrifugation was performed at 4° C. (12000 rpm, 20 min), and the supernatant, i.e., the brain homogenate, was placed in a new EP tube.
# Eppendorf (EP) tubes were set as: (1) blank group, (2) blank control group, (3) vehicle control group, and (4) plasminogen group, with 5 parallels in each group. The blank group was added with 21.5 μL of normal saline, 4.6 μL of vehicle solution (10 mM sodium citrate, 2% arginine hydrochloride, 3% mannitol, pH 7.4), and 23.9 μL of mouse brain homogenate; the blank control group was added with 21.5 μL of normal saline, 2.3 μL of plasminogen solution (2 mg/mL), and 23.9 μL of mouse brain homogenate; the vehicle control group was added with 20.5 μL of TDP-43 (Nanjing GenScript Biotechnology Co., Ltd., custom-expressed human TDP-43, C134WHE160-2/P5HF001, 1.05 mg/mL), 4.6 μL of vehicle solution, and 23.9 μL of mouse brain homogenate; the plasminogen group was added with 20.5 μL of TDP-43 (1.05 mg/mL), 2.3 μL of plasminogen solution (2 mg/mL), and 23.9 μL of mouse brain homogenate. After adding each group of samples, they are incubated at 37° C. for 3 h, then adding 50 μL of 0.1% trifluoroacetic acid solution to terminate the reaction.
# A 12% gel was prepared according to the SDS-PAGE gel preparation instructions. Each group of samples was mixed with 4× loading buffer (TaKaRa, e2139) at a volume ratio of 3:1, heating at 100° C. for 5 min, cooling and centrifuging for 2 min, and then 20 μL was taken for sample loading. […] After washing 4 times with TBST, the PVDF membrane was placed on a clean imaging plate, Immobilon Western HRP Substrate (MILLIPORE, WBKLS0100) was added for color development, and photos were taken under a biomolecular imager, then performing quantitative analysis by using Image J.
# [2] = Spinal cord tissue plasminogen level in MPTP Parkinson's model mice (ELISA); type: in vivo, mouse; details: 50 mg/kg tail vein
# [3] = Plasma plasminogen level after tail vein injection in SOD1-G93A mice (ELISA); type: in vivo, mouse
# Description: Twenty-seven 10-15 week-age B6.Cg-Tg (SOD1-G93A) 1Gur/J (SOD1-G93A) mice (pedigree number: 004435) (referred to as SOD1-G93A mice) (breeding mice were purchased from Jackson Laboratory, USA) were randomly divided into three groups: three in the vehicle control group, 12 in the 6 mg/kg plasminogen group, and 12 in the 50 mg/kg plasminogen group. The mice in the vehicle control group were injected with vehicle at 5 ml/kg by tail vein, the mice in the 6 mg/kg plasminogen group were injected with plasminogen (1.2 mg/ml) at 6 mg/kg body weight by tail vein, and the mice in the 50 mg/kg plasminogen group were injected with plasminogen (10 mg/ml) at 6 mg/kg body weight by tail vein. The mice in the vehicle control group were killed 2 hours after administration, and their blood was collected. Three mice in the 6 mg/kg plasminogen group and three mice in the 50 mg/kg plasminogen group were killed at 2, 6, 12 and 24 hours after administration, and their blood was collected. After the blood was centrifuged (3500 rpm, 10 min, 4° C.), the supernatant was taken to test according to the instructions of Human Plasminogen ELISA Kit (manufacturer: AssayMax, catalog number: EP1200-1). The concentration of each sample was calibrated by using human plasminogen working standard as the internal standard. The calibrated concentration was divided by the total protein concentration to calculate the amount of plasminogen per unit of total protein in each sample and perform statistical analysis.
# [4] = test system: NSC34 cells; experiment: Plasmin activity in cytoplasm and nucleus of okadaic acid-treated NSC34 cells (enzyme substrate kinetic method, S-2251); type: cell-based; details: plasminogen 0.5 mg/mL 24 hours, vs vehicle group
# Description: The cells were placed in a carbon dioxide incubator for culture at 37.0° C. and 5% CO2. […] After adding plasminogen for 24 hours, the cells were harvested. […] The supernatant is the extracted cytoplasmic protein, and the supernatant is immediately sucked up into a pre-cooled sample tube for later use. The precipitate is the cell nucleus, and the remaining supernatant was completely aspirated (to avoid contamination by cytoplasmic proteins), then adding 50-100 μL of nuclear protein extraction reagent. The precipitate is completely dispersed by pipette blow or high-speed vortex for 15 seconds (can be extended appropriately), then ice-bathing for 10 minutes, vortexing vigorously at maximum speed for 10 seconds and centrifuging at 12,000-16,000 g for 10 minutes at 4° C. The supernatant was immediately sucked up by pipette into a pre-cooled sample tube; this is the extracted nuclear protein.
molecule,measurement,setting,value
B1,amount of TDP-43 monomer,[1]; WB optical density,significantly lower
same,amount of high molecular weight TDP-43 protein (HMW),[1],significantly lower
same,amount of low molecular weight TDP-43 fragment (LMW),[1],significantly lower
same,time within which plasminogen is almost completely metabolized (spinal cord tissue),[2],12 to 24 h
same,plasminogen level in the spinal cord tissue,[2]; vs vehicle group,significantly higher
same,"plasma plasminogen level, 50 mg/kg group compared with 6 mg/kg group",[3]; tail vein,significantly higher
same,time within which plasminogen is almost completely metabolized (plasma),"[3]; tail vein 50 mg/kg and 6 mg/kg, level decreases from 2 hours",12 to 24 h
same,plasma plasminogen level,[3]; tail vein injection of 6 mg/kg,increase significantly
same,plasma plasminogen level,[3]; tail vein injection of 50 mg/kg,increase significantly
same,level of plasmin activity in the cytoplasm,[4],significantly higher
same,level of plasmin activity in the nucleus,[4],significantly higher
